The record followed here is patent US20220378932A1 (published 2022).

Assay [1] deals with T1, Fc fusion of the human GFRα1 extracellular domain (GFRα1:Fc fusion protein) (human, UniProt P56159 25-429, limits assumed).
T1 construct: extracellular domain; Bought (R&D Systems), captured on plates by a mouse anti-human IgG; also called GFRα1 ECD; GFRal; not shown: Fc part of the bought fusion, captured by a mouse anti-human Fc antibody
T1 sequence (looked up): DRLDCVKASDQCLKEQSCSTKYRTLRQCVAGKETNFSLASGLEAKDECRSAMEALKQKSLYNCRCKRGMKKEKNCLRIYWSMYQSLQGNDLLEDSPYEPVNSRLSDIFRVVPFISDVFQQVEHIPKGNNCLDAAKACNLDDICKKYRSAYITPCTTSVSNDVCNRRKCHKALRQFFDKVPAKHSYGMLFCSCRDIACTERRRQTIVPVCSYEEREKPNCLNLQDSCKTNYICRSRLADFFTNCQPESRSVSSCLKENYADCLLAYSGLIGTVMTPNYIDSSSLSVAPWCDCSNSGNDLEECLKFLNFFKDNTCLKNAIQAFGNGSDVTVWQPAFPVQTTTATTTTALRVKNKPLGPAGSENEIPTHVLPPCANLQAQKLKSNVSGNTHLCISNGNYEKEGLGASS
The experiment in a line: ELISA on captured GFRα1:Fc (format of FIG. 33), run with the CHO-derived fusion protein. On the technique in general: In an ELISA, binding on a coated surface is turned into a signal by an enzyme label.

The target in assay [2] is T1, Fc fusion of the human GFRα1 …. The experiment in a line: ELISA on GFRα1:Fc captured by mouse anti-human IgG, detection with goat anti-GDNF antibody.
For assay [3], the target named is T2, human insulin receptor extracellular domain (HIR ECD) (human, UniProt P06213 28-956, limits assumed).
T2 construct: extracellular domain
The experiment in a line: competitive ligand binding assay: displacement of [125I] murine HIRMAb from plated HIR ECD; Scatchard analysis, high affinity site, nonlinear regression. In general terms: Displacement assays read how much labelled ligand stays bound in the presence of the test substance.

The target of assay [4] is T1, Fc fusion of the human GFRα1 …. As to the kind of experiment: ELISA on GFRα1:Fc captured by mouse anti-human Fc antibody, detection with goat anti-GDNF antibody.
Assay [5] deals with T2, human insulin receptor extracellular …. The experiment in a line: ELISA on plated HIR ECD, COS cell-derived protein, detection with biotinylated goat anti-human IgG; non-linear regression.

B1: recombinant human GDNF (ligand)
chain: SPDKQMAVLPRRERNRQAAAANPENSRGKGRRGQRGKNRGCVLTAIHLNVTDLGLGYETKEELIFRYCSGSCDAAETTYDKILKNLSRNRRLVSDKVGQACCRPIAFDDDLSFLDDNLVYHILRKHSAKRCGCI
notes: Bought (Peprotech); also called recombinant GDNF
One may read the EC50 as the midpoint of the concentration-response curve. Read a high EC50 as weaker potency. Consider B1, for which the EC50 was 1 nM in assay [1] and 1.03 nM in assay [2].

B2: chimeric HIRMAb (Examples 3 and 4) (antibody, human IgG1, kappa)
heavy: not shown
light: DIQMTQSPSSLSASLGERVSLTCRASQDIGGNLYWLQQGPDGTIKRLIYATSSLDSGVPKRFSGSRSGSDYSLTISSLESEDFVDYYCLQYSSSPWTFGGATKMEIKRTVAAPSVFIFPPSDEQLKSGTASVVCLLNNFYPREAKVQWKVDNALQSGNSQESVTEQDSKDSTYSLSSTLTLSKADYEKHKVYACEVTHQGLSSPVTKSFNRGEC
notes: also called chimeric form of the HIRMAb; product of clone 400
The term Ki denotes the dissociation constant of the complex between target and ligand, obtained from inhibition or displacement. Read a high Ki as lower affinity. Consider B2, for which, in assay [3], the Ki is 0.63 nM.

B3: chimeric HIRMAb (Examples 15 and 16) (antibody, human IgG1, kappa, V domains shown)
VH: QVQLQQSGPELVKPGALVKISCKASGYTFTNYDIHWVKQRPGQGLEWIGWIYPGDGSTKYNEKFKGKATLTADKSSSTAYMHLSSLTSEKSAVYFCAREWAYWGQGTLVTVSA
VL: DIQMTQSPSSLSASLGERVSLTCRASQDIGGNLYWLQQGPDGTIKRLIYATSSLDSGVPKRFSGSRSGSDYSLTISSLESEDFVDYYCLQYSSSPWTFGGGTKMEIKR
notes: also called COS cell-derived chimeric HIRMAb; CHO-derived HIRMAb
Regarding B3, the binding result in assay [4] is listed as “no binding”. For the same molecule, the response in assay [5] was half-maximal at 0.5 nM (EC50).
